From publication doi:10.1101/580449 (bioRxiv, 2019)

Molecular target: the molecule itself
Experiment: crystal structure

B1: CMP-sialic acid transporter homologue from Zea mays (CSTZM), wildtype-like crystallization construct (natural protein)
chain: MQWYLVAALLTILTSSQGILTTLSQSNGKYNYDYATIPFLAELFKLSVSGFFLWKECRTSPSVRMTKEWRSVRLYVVPSVIYLIHNNVQFATLTYVDPSTYQIMGNLKIVTTGILFRLVLKRKLSNIQWMAIVLLAVGTTTSQVKGCGDSPCDSLFSAPLEGYLLGILSACLSALAGVYTEYLMKKNNDSLYWQNVQLYTFGVIFNMGWLIYGDFKAGFELGPWWQRLFNGYSITTWMVVFNLGSTGLLVSWLMKYSDNIVKVYSTSMAMLLTMVLSIYLFSVKATIQLFLGIIICIISLQMYFMPVHMLIELPQTLPVTSKENLYFQ
  binding result: binds
